Assay results reported in patent CN111320694A.

Molecular target: GPC3蛋白 (Glypican 3 protein, recombinant) (UniProt P51654)
Test: sandwich ELISA: GPC3 polyclonal antibody coated, GPC3 protein titrated, 0.2μg/mL GN2-Luc as detector, luminescence

UniProt P51654, sequence (P51654 25-559 limits assumed): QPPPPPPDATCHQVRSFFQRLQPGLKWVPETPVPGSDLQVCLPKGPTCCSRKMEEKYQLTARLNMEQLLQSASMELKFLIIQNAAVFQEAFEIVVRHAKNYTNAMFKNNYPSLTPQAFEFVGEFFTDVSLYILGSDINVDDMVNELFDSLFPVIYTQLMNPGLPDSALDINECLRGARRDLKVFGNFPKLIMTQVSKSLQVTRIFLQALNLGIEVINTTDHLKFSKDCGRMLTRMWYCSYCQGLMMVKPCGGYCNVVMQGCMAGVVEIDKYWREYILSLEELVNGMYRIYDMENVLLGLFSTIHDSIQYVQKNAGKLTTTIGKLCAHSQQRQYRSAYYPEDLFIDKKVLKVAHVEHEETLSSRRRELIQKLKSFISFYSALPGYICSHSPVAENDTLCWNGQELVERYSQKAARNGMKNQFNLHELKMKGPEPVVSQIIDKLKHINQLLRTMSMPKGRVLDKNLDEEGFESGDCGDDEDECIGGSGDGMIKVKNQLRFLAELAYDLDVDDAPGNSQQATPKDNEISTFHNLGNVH

B1: 融合蛋白GN2-Luc (GN2-Nano-luciferase fusion protein) (protein, part only; not given: junction and purification tag, not shown: small tags and cut ends)
chain, part: QVQLVESGGGLVQPGGSLRLSCAASGFTLDAYAIGWFRQAPGKEREGVSYITSGTGTTLYADSVKGRFTISRDNAKNTVYLQMNSLKPEDTAVYFCTTLKRTTAGGWPIPGRIGGQGTQVTVSS
B1 showed an EC20 (GPC3 concentration at 20% of the strongest luminescence) of 0.0539 µg/mL and an EC80 (GPC3 concentration at 80% of the strongest luminescence) of 0.219 µg/mL.
